Results published in patent US20150175710A1 (DEVELOPMENT CENTER FOR BIOTECHNOLOGY, published 2015).

Columns and labels:
[1] = biological target: T1, human ENO1 protein (wild type) (human, UniProt P06733 1-434); test: ELISA, ENO1 coated, EN10 mAb 2-fold serial dilution, four parameter logistic fit
T1 construct: Coated on ELISA plates; also called alpha-Enolase; enolase-1; not shown: source of the protein in Exampl

[2] = biological target: T1, human ENO1 protein (wild type); test: ELISA, 400 ng human ENO1 coated, antibody serial dilution, four parameter logistic fit
[3] = biological target: T2, human ENO1 mutant D300 to alanine (human, UniProt P06733 1-434); test: ELISA, mutant ENO1 coated, EN10 mAb 2-fold serial dilution, four parameter logistic fit
T2 construct: Expressed in E. coli; also called A300; not shown: His tag (Ni-agarose purified)
T2 sequence (P06733 other isoform, or with tags, fused parts or gaps mutant limits assumed): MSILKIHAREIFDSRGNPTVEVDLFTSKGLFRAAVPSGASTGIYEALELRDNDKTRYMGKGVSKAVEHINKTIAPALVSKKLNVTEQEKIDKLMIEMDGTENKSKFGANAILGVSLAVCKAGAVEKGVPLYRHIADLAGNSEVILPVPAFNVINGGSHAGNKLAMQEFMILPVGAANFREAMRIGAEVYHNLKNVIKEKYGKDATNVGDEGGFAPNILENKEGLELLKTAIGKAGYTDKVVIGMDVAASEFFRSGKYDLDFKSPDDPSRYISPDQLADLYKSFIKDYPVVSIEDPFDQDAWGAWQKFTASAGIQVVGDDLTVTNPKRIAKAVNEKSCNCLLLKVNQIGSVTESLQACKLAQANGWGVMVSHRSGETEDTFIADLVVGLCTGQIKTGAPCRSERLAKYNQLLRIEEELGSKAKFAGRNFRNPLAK

[4] = biological target: T3, human ENO1 mutant G302 to alanine (human, UniProt P06733 1-434); test: as above
T3 construct: Expressed in E. coli; also called A302; not shown: His tag (Ni-agarose purified)
T3 sequence (P06733 other isoform, or with tags, fused parts or gaps mutant limits assumed): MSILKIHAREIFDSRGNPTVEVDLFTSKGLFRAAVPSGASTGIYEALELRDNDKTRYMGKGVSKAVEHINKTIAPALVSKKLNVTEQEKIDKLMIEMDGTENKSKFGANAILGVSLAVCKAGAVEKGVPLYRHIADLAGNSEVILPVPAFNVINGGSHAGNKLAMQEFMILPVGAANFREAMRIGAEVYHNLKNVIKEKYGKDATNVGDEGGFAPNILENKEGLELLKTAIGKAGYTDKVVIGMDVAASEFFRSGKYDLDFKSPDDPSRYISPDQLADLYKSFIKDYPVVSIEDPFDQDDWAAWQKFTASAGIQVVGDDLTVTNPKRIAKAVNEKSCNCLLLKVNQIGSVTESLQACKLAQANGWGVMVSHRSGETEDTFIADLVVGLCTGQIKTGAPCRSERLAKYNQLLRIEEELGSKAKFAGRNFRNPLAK

[5] = biological target: T4, human ENO1 mutant Q305 to alanine (human, UniProt P06733 1-434); test: as above
T4 construct: Expressed in E. coli; also called A305; not shown: His tag (Ni-agarose purified)
T4 sequence (P06733 other isoform, or with tags, fused parts or gaps mutant limits assumed): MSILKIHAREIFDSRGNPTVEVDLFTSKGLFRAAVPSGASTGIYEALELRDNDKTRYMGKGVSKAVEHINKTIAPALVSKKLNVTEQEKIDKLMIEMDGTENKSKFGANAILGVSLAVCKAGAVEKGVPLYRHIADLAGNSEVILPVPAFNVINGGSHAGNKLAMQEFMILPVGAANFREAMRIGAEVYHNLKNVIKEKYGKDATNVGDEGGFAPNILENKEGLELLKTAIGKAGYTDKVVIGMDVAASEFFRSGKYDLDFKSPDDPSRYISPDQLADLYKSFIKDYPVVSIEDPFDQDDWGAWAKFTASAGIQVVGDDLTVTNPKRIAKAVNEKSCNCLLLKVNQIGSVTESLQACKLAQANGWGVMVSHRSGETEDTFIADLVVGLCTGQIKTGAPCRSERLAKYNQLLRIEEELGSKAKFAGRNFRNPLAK

[6] = biological target: T5, human ENO1 mutant K306 to alanine (human, UniProt P06733 1-434); test: as above
T5 construct: Expressed in E. coli; also called A306; not shown: His tag (Ni-agarose purified)
T5 sequence (P06733 other isoform, or with tags, fused parts or gaps mutant limits assumed): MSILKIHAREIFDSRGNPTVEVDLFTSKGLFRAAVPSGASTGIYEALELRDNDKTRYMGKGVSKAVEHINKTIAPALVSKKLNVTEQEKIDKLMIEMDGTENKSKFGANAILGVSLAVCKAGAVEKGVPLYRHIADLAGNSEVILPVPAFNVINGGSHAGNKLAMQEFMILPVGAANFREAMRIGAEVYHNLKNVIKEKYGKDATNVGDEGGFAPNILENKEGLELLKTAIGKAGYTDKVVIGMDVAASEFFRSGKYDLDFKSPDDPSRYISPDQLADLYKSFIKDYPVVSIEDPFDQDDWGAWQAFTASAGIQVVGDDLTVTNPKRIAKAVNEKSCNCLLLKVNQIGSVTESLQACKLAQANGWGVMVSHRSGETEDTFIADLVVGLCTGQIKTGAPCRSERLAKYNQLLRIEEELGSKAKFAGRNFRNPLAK

[7] = biological target: T6, human ENO1 mutant A309 to glycine (human, UniProt P06733 1-434); test: as above
T6 construct: Expressed in E. coli; not shown: His tag (Ni-agarose purified)
T6 sequence (P06733 other isoform, or with tags, fused parts or gaps mutant limits assumed): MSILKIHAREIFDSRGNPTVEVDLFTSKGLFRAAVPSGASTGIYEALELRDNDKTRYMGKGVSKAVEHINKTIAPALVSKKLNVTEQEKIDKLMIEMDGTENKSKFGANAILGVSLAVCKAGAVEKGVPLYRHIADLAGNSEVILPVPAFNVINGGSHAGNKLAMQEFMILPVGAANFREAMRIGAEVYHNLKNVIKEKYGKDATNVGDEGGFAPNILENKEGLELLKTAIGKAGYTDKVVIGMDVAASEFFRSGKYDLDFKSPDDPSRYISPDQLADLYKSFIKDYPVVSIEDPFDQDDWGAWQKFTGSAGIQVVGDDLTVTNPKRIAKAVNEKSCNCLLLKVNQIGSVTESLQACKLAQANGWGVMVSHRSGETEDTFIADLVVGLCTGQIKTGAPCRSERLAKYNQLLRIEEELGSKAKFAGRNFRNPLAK

[8] = biological target: T7, human ENO1 mutant K326 to alanine (human, UniProt P06733 1-434); test: as above
T7 construct: Expressed in E. coli; also called A326; not shown: His tag (Ni-agarose purified)
T7 sequence (P06733 other isoform, or with tags, fused parts or gaps mutant limits assumed): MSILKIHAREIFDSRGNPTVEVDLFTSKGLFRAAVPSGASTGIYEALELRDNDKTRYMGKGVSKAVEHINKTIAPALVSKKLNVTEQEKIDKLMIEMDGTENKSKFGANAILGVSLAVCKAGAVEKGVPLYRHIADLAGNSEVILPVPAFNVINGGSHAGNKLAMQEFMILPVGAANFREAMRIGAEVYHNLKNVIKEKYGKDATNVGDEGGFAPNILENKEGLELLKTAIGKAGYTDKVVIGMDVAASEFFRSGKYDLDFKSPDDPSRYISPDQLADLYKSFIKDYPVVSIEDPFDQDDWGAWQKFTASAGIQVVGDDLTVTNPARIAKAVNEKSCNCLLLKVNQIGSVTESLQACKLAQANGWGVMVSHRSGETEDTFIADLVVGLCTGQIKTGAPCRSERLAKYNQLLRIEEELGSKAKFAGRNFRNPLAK

[9] = biological target: T8, human ENO1 mutant N333 to alanine (human, UniProt P06733 1-434); test: as above
T8 construct: Expressed in E. coli; also called A333; not shown: His tag (Ni-agarose purified)
T8 sequence (P06733 other isoform, or with tags, fused parts or gaps mutant limits assumed): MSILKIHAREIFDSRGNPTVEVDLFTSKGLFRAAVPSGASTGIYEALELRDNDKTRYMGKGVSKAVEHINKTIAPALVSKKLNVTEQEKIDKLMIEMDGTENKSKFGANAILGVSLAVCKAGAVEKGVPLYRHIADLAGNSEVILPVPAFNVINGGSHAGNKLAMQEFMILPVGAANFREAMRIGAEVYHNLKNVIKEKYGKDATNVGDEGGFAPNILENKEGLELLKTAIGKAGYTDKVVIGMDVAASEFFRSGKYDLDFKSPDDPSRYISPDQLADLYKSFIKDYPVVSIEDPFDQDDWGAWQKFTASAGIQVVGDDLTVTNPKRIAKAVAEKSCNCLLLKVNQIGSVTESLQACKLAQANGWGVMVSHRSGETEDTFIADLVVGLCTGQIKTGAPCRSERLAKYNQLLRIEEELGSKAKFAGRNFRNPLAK

[10] = biological target: T9, human ENO1 mutant E334 to alanine (human, UniProt P06733 1-434); test: as above
T9 construct: Expressed in E. coli; also called A334; not shown: His tag (Ni-agarose purified)
T9 sequence (P06733 other isoform, or with tags, fused parts or gaps mutant limits assumed): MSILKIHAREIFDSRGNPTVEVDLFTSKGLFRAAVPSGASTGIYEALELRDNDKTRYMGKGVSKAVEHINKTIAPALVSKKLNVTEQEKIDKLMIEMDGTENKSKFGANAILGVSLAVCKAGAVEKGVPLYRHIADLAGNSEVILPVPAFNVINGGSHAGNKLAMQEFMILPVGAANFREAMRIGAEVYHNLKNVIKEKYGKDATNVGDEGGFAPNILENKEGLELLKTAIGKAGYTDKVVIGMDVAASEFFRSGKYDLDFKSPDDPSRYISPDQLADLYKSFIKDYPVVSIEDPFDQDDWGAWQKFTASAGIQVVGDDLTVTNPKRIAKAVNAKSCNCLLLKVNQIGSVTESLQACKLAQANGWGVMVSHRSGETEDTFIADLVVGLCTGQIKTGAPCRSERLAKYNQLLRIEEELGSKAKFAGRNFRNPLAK

[11] = biological target: T10, human ENO1 mutant K335 to alanine (human, UniProt P06733 1-434); test: as above
T10 construct: Expressed in E. coli; also called A335; not shown: His tag (Ni-agarose purified)
T10 sequence (P06733 other isoform, or with tags, fused parts or gaps mutant limits assumed): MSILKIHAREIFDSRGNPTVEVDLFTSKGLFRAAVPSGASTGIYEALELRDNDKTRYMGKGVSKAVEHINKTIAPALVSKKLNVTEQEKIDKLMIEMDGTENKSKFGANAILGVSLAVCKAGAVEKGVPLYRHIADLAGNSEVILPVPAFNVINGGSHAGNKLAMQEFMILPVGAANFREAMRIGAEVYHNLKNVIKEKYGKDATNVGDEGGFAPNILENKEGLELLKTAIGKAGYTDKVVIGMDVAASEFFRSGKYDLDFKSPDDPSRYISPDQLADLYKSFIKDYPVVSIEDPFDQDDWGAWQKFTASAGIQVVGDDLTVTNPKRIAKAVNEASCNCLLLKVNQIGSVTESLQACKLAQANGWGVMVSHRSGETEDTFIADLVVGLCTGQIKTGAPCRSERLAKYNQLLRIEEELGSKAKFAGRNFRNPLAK

T1 sequence (P06733 whole entry): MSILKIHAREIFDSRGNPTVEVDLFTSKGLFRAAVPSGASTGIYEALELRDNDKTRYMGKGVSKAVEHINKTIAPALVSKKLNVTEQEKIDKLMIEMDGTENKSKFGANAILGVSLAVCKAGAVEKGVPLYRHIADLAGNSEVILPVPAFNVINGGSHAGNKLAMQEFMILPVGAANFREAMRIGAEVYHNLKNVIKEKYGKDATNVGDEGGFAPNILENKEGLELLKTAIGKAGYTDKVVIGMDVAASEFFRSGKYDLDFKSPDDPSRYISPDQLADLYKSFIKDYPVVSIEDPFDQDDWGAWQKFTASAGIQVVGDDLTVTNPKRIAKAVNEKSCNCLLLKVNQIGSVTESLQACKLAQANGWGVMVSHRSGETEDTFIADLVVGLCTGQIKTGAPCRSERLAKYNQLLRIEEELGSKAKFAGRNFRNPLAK

Kd [1]: 0.443 nM
Kd [2]: 0.203 nM
Kd [3]: 63.3 nM
Kd [4]: 0.345 nM
Kd [5]: 0.331 nM
Kd [6]: 0.465 nM
Kd [7]: 5.63 nM
Kd [8]: 0.787 nM
Kd [9]: 0.413 nM
Kd [10]: 107 nM
Kd [11]: 9.57 nM
B1: anti-human ENO1 antibody EN10 mAb (antibody, V domains shown)
VH: EVQLQQSGPELVKPGASVKMSCKASGYTFTSCVMNWVKQKPGQGLEWIGYINPYNDGTKYNEKFKGKATLTSDKSSSTAYMELSSLTSEDSAVYYCAREGFYYGNFDNWGQGTTLTVSS
VL: DIQMTQSPASLSASVGETVTITCRASENIYSYLTWYQQKQGKSPQLLVYNAKTLPEGVPSRFSGSGSGTQFSLKINSLQPEDFGSYYCQHHYGTPYTFGGGTKLEITR
